# Experimental data taken from PMC4027191 (Nucleic Acids Research, 2014).
# T1: Recombinant His-tagged RECQL1 (human, UniProt P46063 1-649)
# T1 sequence (looked up): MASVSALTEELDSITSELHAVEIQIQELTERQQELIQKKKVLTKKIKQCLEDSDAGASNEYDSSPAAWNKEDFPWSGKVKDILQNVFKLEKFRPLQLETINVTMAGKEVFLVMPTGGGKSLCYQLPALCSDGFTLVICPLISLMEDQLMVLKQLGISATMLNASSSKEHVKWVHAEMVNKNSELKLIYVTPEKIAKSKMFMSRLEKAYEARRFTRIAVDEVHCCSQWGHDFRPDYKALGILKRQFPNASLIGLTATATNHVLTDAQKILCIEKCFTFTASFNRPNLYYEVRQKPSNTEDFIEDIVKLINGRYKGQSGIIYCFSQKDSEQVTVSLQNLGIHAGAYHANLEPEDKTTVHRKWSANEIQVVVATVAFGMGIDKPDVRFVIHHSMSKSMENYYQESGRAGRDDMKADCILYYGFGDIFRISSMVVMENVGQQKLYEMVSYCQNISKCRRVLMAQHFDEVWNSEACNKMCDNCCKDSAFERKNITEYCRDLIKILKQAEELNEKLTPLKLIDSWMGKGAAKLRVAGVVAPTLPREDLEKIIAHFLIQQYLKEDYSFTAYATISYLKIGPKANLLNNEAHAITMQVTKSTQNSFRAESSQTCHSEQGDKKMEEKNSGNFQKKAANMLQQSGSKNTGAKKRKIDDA
# Assays:
# [1] = biological target: T1, Recombinant His-tagged RECQL1; assay: cell-based or functional assay
# RECQL1 = RECQL1 (Homo sapiens, UniProt P46063 1-649); assay: EMSA; EMSA buffer, pH and temperature not given in the material
# TRF2 [2] = biological target: T2, TRF2 (Homo sapiens, UniProt Q15554 1-542); assay: EMSA; text gives ~100 nM, binds weakly; EMSA buffer, pH and temperature not given in the material
# TRF1 [3] = biological target: T3, TRF1 (Homo sapiens, UniProt P54274 1-439); assay: EMSA; text gives ~50 nM; EMSA buffer, pH and temperature not given in the material
# T3 sequence (P54274 whole entry): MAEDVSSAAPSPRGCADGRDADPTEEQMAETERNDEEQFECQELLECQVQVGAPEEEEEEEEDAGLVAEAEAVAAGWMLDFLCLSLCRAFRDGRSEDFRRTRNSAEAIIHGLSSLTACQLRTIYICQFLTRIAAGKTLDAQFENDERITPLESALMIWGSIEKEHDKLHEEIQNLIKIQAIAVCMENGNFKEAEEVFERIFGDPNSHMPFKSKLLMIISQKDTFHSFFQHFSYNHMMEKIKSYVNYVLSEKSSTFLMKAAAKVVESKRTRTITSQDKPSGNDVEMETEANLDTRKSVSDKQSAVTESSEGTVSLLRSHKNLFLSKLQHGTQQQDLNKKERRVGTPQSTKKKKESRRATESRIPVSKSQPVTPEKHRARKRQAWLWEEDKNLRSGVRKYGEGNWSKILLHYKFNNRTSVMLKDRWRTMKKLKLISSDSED
# TRF2 [4] = biological target: T2, TRF2; assay: EMSA; EMSA buffer, pH and temperature not given in the material
# TRF1 [5] = biological target: T3, TRF1; assay: as above
helicase activity of RECQL1 left on the 8-oxoguanine telomeric D-loop DL4 with TRF2 at a molar ratio of 1:4 (RECQL1:TRF2) [1] [%],Binder,Kd (RECQL1) [nM],Kd (TRF2 [2]) [nM],Kd (TRF1 [3]) [nM],Kd (TRF2 [4]) [nM],Kd (TRF1 [5]) [nM]
~40,"Recombinant histidine-tagged human TRF2 (natural protein, UniProt Q15554 1-542, looked up) MAAGAGTAGPASGPGVVRDPAASQPRKRPGREGGEGARRSDTMAGGGGSSDGSGRAAGRRASRSSGRARRGRHEPGLGGPAERGAGEARLEEAVNRWVLKFYFHEALRAFRGSRYGDFRQIRDIMQALLVRPLGKEHTVSRLLRVMQCLSRIEEGENLDCSFDMEAELTPLESAINVLEMIKTEFTLTEAVVESSRKLVKEAAVIICIKNKEFEKASKILKKHMSKDPTTQKLRNDLLNIIREKNLAHPVIQNFSYETFQQKMLRFLESHLDDAEPYLLTMAKKALKSESAASSTGKEDKQPAPGPVEKPPREPARQLRNPPTTIGMMTLKAAFKTLSGAQDSEAAFAKLDQKDLVLPTQALPASPALKNKRPRKDENESSAPADGEGGSELQPKNKRMTISRLVLEEDSQSTEPSAGLNSSQEAASAPPSKPTVLNQPLPGEKNPKVPKGKWNSSNGVEEKETWVEEDELFQVQAAPDEDSTTNITKKQKWTVEESEWVKAGVQKYGEGNWAAISKNYPFVNRTAVMIKDRWRTMKRLGMN",–,–,–,–,–
–,DL1 (telomeric D-loop) (structured_DNA) DNA 1: CACCATCCAGTTCTCTTTTGAGAACTGGATGGTGTTAGGGTTAGGGTTAGGGTTAGGGTTAACGCTC DNA 2: TCAAGCTCGGTCTGCAGTCAGGATGATTGTGAGCGTTAACCCTAACCCTAACCCTAACCCTAATCTGCACTCGAGACTCACGTCCTGGTCACG DNA 3: CGTGACCAGGACGTGAGTCTCGAGTGCAGACCTTTTTTTTTTTTTTTTTTTTTTTTTTTTTTTACAATCATCCTGACTGCAGACCGAGCTTGA,10 ± 2.5,90 ± 12.5,40 ± 5,–,–
–,"DL4 (telomeric D-loop with two 8-oxoG) (structured_DNA, 8-oxo-dG at positions 39 and 57 of strand 1 (written as G)) DNA 1: CACCATCCAGTTCTCTTTTGAGAACTGGATGGTGTTAGGGTTAGGGTTAGGGTTAGGGTTAACGCTC DNA 2: TCAAGCTCGGTCTGCAGTCAGGATGATTGTGAGCGTTAACCCTAACCCTAACCCTAACCCTAATCTGCACTCGAGACTCACGTCCTGGTCACG DNA 3: CGTGACCAGGACGTGAGTCTCGAGTGCAGACCTTTTTTTTTTTTTTTTTTTTTTTTTTTTTTTACAATCATCCTGACTGCAGACCGAGCTTGA",12.5 ± 5,–,–,125 ± 10,50 ± 10
